From patent EP4775675A1 (Shanghai Hongcheng Biopharmaceutical Co., Ltd., dated 2026) come the findings set out here.

As a reminder, the EC50 is the midpoint of the concentration-response curve. The Kd is a measure of binding affinity in units of concentration. One may read the koff as the rate constant with which the complex falls apart. What is called kon is the second-order rate constant of association.

Like-named read-outs stand apart in the source and are kept apart here.

Test [1] addresses T1, cynomolgus monkey BDCA-2 on cells (Jurkat-cynoBDCA-2 cells; cynomolgus monkey pDCs) (cynomolgus monkey, UniProt A0A2K5UWP4 1-212).
T1 construct: whole, on cells
T1 sequence: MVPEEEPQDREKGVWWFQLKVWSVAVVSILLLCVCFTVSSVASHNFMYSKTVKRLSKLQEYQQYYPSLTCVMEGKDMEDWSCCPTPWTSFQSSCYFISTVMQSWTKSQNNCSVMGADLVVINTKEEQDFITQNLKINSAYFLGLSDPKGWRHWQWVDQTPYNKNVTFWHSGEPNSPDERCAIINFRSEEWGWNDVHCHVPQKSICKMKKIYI
The test can be described thus: flow cytometry on Jurkat-cynoBDCA-2 cells. Background: Flow cytometry measures light scatter and fluorescence of single cells or particles in a stream.

The target of test [2] is T2, human BDCA-2 on cells (Jurkat-hBDCA-2 cells; human pDCs; human PBMCs) (human, UniProt Q8WTT0 1-213).
T2 sequence (looked up): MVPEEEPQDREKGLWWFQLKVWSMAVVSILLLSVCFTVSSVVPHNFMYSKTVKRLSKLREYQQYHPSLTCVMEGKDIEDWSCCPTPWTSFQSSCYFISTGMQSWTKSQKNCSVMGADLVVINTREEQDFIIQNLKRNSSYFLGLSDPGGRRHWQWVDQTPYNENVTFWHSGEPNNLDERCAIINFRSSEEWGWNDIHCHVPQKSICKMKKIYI
As to the kind of experiment: cell-based or functional assay.

The target of test [3] is T2, human BDCA-2 on cells (Jurkat-hBDCA-2 …). As to the kind of experiment: flow cytometry on Jurkat-hBDCA-2 cells.
Test [4] has the same target. As to the kind of experiment: flow cytometry on Jurkat-hBDCA-2 cells. The source holds these as a separate data set.
Test [5] shares this target. As to the kind of experiment: flow cytometry on sorted human pDCs.
Test [6] addresses T3, Human BDCA-2 protein (soluble, Octet analyte) (human, UniProt Q8WTT0 45-213, limits assumed).
T3 construct: Soluble protein used as analyte in BLI
T3 sequence (looked up): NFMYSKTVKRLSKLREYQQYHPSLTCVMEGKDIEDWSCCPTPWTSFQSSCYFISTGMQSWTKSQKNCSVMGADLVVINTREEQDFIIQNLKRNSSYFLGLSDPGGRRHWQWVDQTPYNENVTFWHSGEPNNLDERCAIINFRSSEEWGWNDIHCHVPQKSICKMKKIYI
As to the kind of experiment: BLI (Octet Red96e), antibody on anti-human IgG sensor, human BDCA-2 protein in solution. (In general: Biolayer interferometry detects binding as a change in optical thickness at a sensor tip.)

The target in test [7] is T2, human BDCA-2 on cells (Jurkat-hBDCA-2 …). The test can be described thus: cell-based or functional assay. The source holds these as a separate data set.
Test [8] has the same target. The test can be described thus: flow cytometry on Jurkat-hBDCA-2 cells. The source holds these as a separate data set.
Test [9] has the same target. As to the kind of experiment: cell-based or functional assay. This is another data set of the same source.
For test [10] the target is unchanged. The test can be described thus: cell-based or functional assay. The source holds these as a separate data set.
In test [11] the target is T3, Human BDCA-2 protein (soluble, Octet …). As to the kind of experiment: BLI (Octet Red96e), antibody on anti-human IgG sensor, human BDCA-2 protein in solution. This is another data set of the same source.
The target in test [12] is T2, human BDCA-2 on cells (Jurkat-hBDCA-2 …). The test can be described thus: cell-based or functional assay. The source holds these as a separate data set.
For test [13] the target is unchanged. The test can be described thus: cell-based or functional assay. The source holds these as a separate data set.
Test [14] has the same target. The test can be described thus: cell-based or functional assay. This is another data set of the same source.
For test [15], the target named is T1, cynomolgus monkey BDCA-2 on cells …. The test can be described thus: flow cytometry on Jurkat-cynoBDCA-2 cells. The source holds these as a separate data set.
In test [16] the target is T4, cynomolgus monkey BDCA-2 protein (acro, CLC-C52H4) (cynomolgus monkey, UniProt A0A2K5UWP4 45-212).
T4 construct: Bought soluble protein; also called cyno BDCA-2
T4 sequence: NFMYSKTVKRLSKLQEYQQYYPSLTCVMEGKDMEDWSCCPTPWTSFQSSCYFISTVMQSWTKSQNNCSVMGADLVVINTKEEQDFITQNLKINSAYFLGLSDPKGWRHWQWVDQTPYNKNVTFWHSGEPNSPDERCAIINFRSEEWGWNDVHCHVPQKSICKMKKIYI
The test can be described thus: BLI (Octet Red96e), antibody on anti-human IgG sensor, cynomolgus monkey BDCA-2 protein in solution.

Test [17] concerns the target human FcγRIIIa (158V) on Jurkat-human FcγRIIIa (158V)-NFAT cells (human, UniProt P08637 17-254). As to the kind of experiment: cell-based or functional assay.
A further test addresses T5, human CLEC4A (human, UniProt Q9UMR7 70-237, limits assumed).
T5 sequence (looked up): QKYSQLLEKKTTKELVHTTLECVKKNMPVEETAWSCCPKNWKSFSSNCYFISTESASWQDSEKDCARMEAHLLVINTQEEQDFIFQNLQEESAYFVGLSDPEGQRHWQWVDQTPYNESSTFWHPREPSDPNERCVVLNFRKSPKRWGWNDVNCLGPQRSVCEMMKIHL
As to the kind of experiment: ELISA, coated protein 1 µg/ml. (In general: An ELISA detects its analyte on a solid surface through an enzyme-linked reagent.)

The target in the next test is T6, human CLEC4E (human, UniProt Q9ULY5 41-219, limits assumed).
T6 sequence (looked up): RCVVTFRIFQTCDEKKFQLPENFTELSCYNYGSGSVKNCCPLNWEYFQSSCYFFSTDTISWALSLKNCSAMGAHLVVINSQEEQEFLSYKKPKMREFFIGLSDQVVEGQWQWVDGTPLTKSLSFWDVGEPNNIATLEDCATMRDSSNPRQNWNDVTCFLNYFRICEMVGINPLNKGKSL
As to the kind of experiment: ELISA, coated protein 1 µg/ml.

Another test has as its target T7, human CLEC4D (human, UniProt Q8WXI8 39-215, limits assumed).
T7 sequence (looked up): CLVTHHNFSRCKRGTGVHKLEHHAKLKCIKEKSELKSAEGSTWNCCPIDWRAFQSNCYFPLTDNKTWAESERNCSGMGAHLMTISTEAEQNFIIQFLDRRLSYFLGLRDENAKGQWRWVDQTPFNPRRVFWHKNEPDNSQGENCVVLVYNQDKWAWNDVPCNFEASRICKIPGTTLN
The test can be described thus: ELISA, coated protein 1 µg/ml.

A further test concerns the target T8, human CLEC6A (human, UniProt Q6EIG7 42-209, limits assumed).
T8 sequence (looked up): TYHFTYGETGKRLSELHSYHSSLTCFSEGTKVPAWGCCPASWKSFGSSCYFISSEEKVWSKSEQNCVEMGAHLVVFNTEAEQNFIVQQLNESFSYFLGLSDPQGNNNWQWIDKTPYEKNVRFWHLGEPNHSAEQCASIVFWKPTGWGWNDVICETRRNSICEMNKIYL
The test can be described thus: ELISA, coated protein 1 µg/ml.

Chain of human FcγRIIIa (158V) on Jurkat-human FcγRIIIa (158V)-NFAT cells (P08637 17-254 F176V): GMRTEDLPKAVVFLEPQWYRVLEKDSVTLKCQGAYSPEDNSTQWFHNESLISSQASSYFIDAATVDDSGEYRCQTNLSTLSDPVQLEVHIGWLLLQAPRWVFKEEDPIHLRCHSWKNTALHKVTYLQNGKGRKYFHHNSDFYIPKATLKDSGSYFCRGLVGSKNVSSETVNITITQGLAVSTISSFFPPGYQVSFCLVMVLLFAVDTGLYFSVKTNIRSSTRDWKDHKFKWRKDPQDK

B1: 164C11B8 (murine hybridoma monoclonal antibody) (antibody, V domains shown)
VH: DVILVESGGGLVKPGGSLKLSCAASGITFSTYTMSWLRQTPEKRLEWVATINSGGDNTYYPDSVKGRFTISRDNAKNNLYLQMSSLKSEDTALYYCATYRPYYYGSVLDYWGQGTTLTVSS
VL: DIVLTQSPASLAVSLGQRATISCKASQSVDYDGNSYVNWYQQKPGQPPKLLIYGASNLESGIPDRFSGSGSGTDFTLNIHPVEEEDGATYYCQQSDEDPWTFGGGTKLEIR
notes: Mouse antibody from hybridoma; also called hybridoma 164C11B8; hybridoma antibody 164C11B8
For the molecule B1, the results for the EC50 in [1] and in test [3] were 0.233 µg/mL and 0.189 µg/mL, respectively. In addition, in test [2], the “EC50, inhibition of CpGA-induced type I interferon (IFNα) production in human PBMC cells” value (shortened to “EC50, inhibition … in human PBMC cells”) came out at 0.002 µg/mL.

B2: BIIB059 (antibody)
chain 1: not shown
chain 2: DIQLTQSPSSLSASVGDRVTITCKASQSVDYDGDSYMNWYQQKPGKAPKLLIYAASTLESGVPSRFSGSGSGTDFTLTISSLQPEDFATYYCQQANEDPRTFGQGTKVEIKRTVAAPSVFIFPPSDEQLKSGTASVVCLLNNFYPREAKVQWKVDNALQSGNSQESVTEQDSKDSTYSLSSTLTLSKADYEKHKVYACEVTHQGLSSPVTKSFNRGEC
Consider B2, for which the EC50 stood at 0.175 µg/mL in test [4], 0.281 µg/mL in test [5], 0.0704 µg/mL in test [8] and 0.224 µg/mL in test [3]. For the same molecule, the dissociation constant (Kd) in [6] was 3.9 nM; in test [11], 1.9 nM. The “EC50, inhibition … in human PBMC cells” value stood at 0.0021 µg/mL in test [7], 0.0031 µg/mL in [2], 0.0025 µg/mL in [12] and 0.0132 µg/mL in test [13]. Further, the “EC50, inhibition of immune complex-induced type I interferon (IFNα) in human pDC cells” value in test [9] turned out to be 6.1 ng/mL; in test [10], 33.4 ng/mL. Besides, in test [14], the “EC50, inhibition of immune complex-induced type I interferon (IFNα) production by human pDC cells” value stood at 2.1 ng/mL.

B3: 17G6A2_hzH1L7_hIgG1 (antibody)
heavy: not shown
light: DIVLTQSPASLAVSPGQRATITCRASESVSFHGTHLMHWYQQKPGQPPKLLIYAASNLESGVPARFSGSGSETDFTLTINPVEAEDTANYYCQQSIEDPPTFGGGTKVEIKRTVAAPSVFIFPPSDEQLKSGTASVVCLLNNFYPREAKVQWKVDNALQSGNSQESVTEQDSKDSTYSLSSTLTLSKADYEKHKVYACEVTHQGLSSPVTKSFNRGEC
notes: Humanized, human IgG1/kappa (hzVH01 + hzVL07)
Regarding B3, the Kd is 2.9 nM in test [6] and 4.8 nM in [16]. Also, the koff in test [6] came to 0.000523 s⁻¹; in [16], 0.00064 s⁻¹. The kon in test [6] was 179000 M⁻¹ s⁻¹; in test [16], 130000 M⁻¹ s⁻¹. The values for the concentration giving a half-maximal response (EC50) in [15] and in test [8] were 0.0944 µg/mL and 0.0595 µg/mL, respectively. Besides, the “EC50, activation of Jurkat-human FcγR IIIa (158V)-NFAT cell line with Jurkat-hBDCA-2 target cells” value in test [17] came to 0.005 µg/mL. Further, the “EC50, inhibition … in human PBMC cells” value in test [7] came out at 0.0011 µg/mL. Also, the binding result with human CLEC4A, with human CLEC4E, with human CLEC4D and in the test with human CLEC6A was “no binding (tested: 10 µg/ml)” each time. Also, the “EC50, inhibition of immune complex-induced type I interferon (IFNα) production by human pDC cells” value in test [14] came to 1 ng/mL.
